Measured values as given in paper PMC4342579, “A new cytoplasmic interaction between junctin and ryanodine receptor Ca^2+ release channels” (Journal of Cell Science, 2015).
Blank lines part the entries; values can stand above or below the molecule they belong to. Ends that are not written are not given here. * marks the point of attachment. Biotin = O=C1N[C@H]2[C@H](CS[C@H]2CCCCC(=O)*)N1

Assays:
[1] = molecular target: RyR1 purified from rabbit skeletal muscle (rabbit) (UniProt P11716)
[2] = molecular target: RyR1 purified from rabbit skeletal muscle (rabbit) (UniProt P11716); remark: listed apart in the source
[3] = molecular target: T1, RyR1 purified from rabbit skeletal muscle (rabbit, UniProt P11716 1-5037); assay: pull-down; affinity chromatography: biotinylated canine KEKE peptide on streptavidin–agarose, purified RyR1 or RyR2; settings: both partners purified
T1 construct: ryanodine receptor 1 (RyR1), rabbit skeletal muscle, purified from SR vesicles; Purification as in Wei et al., 2009b; also called skeletal RyR1; purified RyR1; source: purified from rabbit skeletal SR vesicles (sucrose gradient)

[4] = molecular target: T1, RyR1 purified from rabbit skeletal …; assay: cell-based or functional assay
[5] = molecular target: T2, full length recombinant mouse RyR2 (mouse, UniProt E9Q401 1-4966); assay: pull-down; NeutrAvidin–agarose affinity chromatography: biotinylated Njun or scrambled Njun on the agarose, recombinant RyR or RyR1 fragments (isolated from HEK293) incubated overnight at 4°C in PBS plus 0.1% SDS; RyR detected with 34C or anti-GFP antibody; settings: both partners purified
T2 construct: ryanodine receptor 2 (RyR2), mouse, recombinant; Cell line of Koop et al., 2008; also called recombinant RyR2

RyR1 purified from rabbit skeletal muscle (rabbit), sequence (P11716 whole entry): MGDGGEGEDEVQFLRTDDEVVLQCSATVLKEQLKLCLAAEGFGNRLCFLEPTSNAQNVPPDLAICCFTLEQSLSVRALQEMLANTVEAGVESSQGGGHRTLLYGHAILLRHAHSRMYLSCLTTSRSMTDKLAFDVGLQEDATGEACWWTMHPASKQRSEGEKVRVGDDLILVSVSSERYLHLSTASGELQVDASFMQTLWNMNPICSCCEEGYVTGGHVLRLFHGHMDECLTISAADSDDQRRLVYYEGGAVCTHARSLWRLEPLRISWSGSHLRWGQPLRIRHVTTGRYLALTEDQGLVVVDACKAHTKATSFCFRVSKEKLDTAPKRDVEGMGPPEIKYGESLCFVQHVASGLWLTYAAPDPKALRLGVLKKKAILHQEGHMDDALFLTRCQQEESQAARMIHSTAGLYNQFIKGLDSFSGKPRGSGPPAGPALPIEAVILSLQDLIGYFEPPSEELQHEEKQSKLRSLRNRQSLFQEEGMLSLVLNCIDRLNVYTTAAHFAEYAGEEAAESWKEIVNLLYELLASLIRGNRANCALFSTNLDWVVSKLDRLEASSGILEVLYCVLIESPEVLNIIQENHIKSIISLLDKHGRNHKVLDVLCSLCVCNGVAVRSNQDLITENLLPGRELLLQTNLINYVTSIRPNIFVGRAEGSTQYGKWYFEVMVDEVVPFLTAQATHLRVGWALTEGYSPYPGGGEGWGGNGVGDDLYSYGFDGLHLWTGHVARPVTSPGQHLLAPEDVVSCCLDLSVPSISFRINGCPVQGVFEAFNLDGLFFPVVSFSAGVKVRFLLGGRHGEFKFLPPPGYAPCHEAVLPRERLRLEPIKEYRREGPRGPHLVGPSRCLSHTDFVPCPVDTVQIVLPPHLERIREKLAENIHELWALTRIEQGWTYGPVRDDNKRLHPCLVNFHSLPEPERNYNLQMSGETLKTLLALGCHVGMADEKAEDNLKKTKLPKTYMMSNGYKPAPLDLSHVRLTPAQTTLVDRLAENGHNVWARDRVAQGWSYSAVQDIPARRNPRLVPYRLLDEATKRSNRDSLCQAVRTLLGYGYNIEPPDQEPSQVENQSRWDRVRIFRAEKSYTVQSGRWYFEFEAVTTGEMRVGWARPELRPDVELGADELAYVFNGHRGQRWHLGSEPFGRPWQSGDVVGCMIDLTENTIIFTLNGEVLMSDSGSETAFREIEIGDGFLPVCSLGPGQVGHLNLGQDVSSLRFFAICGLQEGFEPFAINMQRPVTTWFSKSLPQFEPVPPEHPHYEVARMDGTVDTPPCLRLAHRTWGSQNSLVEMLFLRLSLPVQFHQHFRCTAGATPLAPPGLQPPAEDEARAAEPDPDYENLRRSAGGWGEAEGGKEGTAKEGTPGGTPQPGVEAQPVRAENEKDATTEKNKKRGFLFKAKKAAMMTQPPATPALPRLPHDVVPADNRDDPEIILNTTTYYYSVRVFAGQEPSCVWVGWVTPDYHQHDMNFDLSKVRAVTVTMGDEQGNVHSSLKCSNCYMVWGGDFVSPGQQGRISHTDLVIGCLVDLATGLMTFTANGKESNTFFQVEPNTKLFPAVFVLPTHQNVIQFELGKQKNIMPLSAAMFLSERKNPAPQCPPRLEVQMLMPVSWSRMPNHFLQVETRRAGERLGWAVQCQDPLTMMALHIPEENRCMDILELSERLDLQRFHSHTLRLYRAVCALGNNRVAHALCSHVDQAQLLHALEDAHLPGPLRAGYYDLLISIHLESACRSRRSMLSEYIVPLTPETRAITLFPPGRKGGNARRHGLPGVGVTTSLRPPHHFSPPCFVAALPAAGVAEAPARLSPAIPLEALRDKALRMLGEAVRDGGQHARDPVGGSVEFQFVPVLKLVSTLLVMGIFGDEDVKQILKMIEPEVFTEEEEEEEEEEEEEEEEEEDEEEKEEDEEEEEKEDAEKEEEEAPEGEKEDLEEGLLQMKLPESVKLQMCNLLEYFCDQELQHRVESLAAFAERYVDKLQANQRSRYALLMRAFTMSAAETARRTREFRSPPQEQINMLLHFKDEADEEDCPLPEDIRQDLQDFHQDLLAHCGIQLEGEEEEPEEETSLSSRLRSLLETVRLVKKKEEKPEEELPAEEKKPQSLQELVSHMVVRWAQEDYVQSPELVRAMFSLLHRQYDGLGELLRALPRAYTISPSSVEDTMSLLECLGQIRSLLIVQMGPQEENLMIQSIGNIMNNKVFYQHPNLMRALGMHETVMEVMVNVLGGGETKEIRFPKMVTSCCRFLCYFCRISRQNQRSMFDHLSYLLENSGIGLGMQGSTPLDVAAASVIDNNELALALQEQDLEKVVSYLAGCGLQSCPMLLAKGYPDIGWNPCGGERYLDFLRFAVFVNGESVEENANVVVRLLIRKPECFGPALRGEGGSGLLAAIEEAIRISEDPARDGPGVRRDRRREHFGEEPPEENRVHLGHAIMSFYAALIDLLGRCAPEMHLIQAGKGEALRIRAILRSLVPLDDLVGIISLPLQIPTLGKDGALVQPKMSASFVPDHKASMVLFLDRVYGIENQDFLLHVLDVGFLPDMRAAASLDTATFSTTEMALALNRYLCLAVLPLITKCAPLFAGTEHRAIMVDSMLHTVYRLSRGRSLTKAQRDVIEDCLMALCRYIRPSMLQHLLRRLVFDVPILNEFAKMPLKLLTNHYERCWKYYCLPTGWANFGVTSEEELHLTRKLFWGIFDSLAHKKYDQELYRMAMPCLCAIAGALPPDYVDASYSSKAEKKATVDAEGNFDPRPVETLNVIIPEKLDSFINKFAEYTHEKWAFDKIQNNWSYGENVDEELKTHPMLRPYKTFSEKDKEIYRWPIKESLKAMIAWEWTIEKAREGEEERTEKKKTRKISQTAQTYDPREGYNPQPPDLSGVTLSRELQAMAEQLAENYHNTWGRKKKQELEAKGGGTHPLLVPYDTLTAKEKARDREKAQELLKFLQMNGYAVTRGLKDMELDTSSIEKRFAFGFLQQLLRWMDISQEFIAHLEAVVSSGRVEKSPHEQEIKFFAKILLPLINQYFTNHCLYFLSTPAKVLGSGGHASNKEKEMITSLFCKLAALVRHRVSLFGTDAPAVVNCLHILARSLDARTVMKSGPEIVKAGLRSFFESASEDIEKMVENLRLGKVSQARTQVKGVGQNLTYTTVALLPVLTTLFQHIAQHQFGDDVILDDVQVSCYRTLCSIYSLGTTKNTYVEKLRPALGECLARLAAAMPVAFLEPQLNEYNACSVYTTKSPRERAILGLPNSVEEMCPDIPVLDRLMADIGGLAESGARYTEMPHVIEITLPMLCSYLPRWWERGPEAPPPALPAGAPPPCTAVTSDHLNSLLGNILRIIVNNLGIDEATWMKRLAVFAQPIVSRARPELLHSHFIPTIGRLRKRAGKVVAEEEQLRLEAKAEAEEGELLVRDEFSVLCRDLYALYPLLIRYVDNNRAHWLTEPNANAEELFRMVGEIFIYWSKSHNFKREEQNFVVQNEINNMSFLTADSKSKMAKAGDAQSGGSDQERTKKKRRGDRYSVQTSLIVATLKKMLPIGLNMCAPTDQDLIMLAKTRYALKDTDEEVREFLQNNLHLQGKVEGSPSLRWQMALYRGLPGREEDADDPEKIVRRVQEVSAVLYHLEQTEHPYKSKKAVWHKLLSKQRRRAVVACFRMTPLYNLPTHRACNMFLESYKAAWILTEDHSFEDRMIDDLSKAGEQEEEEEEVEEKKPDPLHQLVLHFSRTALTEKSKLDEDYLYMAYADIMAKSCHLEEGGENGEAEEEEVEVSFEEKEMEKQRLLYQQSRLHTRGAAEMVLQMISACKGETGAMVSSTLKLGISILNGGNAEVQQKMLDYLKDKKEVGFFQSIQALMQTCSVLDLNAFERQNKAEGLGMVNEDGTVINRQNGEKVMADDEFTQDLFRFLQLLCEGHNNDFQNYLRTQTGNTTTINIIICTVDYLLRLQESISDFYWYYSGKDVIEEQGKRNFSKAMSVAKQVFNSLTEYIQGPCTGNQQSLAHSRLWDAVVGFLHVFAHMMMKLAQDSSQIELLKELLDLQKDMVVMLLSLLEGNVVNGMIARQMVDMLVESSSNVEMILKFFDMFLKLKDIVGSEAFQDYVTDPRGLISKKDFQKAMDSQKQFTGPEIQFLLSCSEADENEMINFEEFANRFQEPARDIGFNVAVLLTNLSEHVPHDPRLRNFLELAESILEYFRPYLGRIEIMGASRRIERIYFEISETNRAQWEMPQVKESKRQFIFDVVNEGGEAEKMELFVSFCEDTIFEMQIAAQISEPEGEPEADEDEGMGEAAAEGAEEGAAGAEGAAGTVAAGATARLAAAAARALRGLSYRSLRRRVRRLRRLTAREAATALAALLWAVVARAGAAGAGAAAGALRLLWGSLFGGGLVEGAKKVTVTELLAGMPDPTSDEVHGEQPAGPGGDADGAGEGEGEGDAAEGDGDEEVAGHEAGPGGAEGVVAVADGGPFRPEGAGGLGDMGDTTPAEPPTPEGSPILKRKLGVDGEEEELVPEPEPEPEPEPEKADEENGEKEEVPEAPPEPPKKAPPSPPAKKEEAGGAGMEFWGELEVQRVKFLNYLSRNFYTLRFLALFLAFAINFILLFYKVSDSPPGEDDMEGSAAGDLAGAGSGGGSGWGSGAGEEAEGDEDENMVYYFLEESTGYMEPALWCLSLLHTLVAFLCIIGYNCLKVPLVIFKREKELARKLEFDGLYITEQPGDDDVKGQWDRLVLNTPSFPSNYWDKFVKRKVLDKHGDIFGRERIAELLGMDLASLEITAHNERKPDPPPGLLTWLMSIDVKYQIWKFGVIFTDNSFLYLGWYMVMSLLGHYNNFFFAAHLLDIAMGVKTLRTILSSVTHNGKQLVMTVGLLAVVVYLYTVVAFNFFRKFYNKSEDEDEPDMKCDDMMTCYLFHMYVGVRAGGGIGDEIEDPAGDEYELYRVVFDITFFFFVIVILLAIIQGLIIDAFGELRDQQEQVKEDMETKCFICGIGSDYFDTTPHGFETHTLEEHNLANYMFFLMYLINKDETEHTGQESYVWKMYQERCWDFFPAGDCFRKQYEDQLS
T1 sequence (P11716 whole entry): as above

B1: Cjun KEKE motif peptide (canine), residues 84–105, biotinylated (peptide)
peptide: Biotin-KRKTKAKVKELTKEELKKEKEK
notes: junctin, canine, KEKE motif, residues 84-105; also called canine KEKE peptide; KEKE peptide; source: synthetic peptide
binding result [3]: binds

B2: Njun peptide, N-terminal cytoplasmic domain of junctin (residues 1–22), biotinylated (peptide)
peptide: Biotin-MAEETKHGGHKNGRKGGLSQSS
notes: junctin, N-terminal cytoplasmic domain, residues 1-22; also called biotinylated Njun; junctin cytoplasmic domain; source: synthetic peptide
open probability of purified RyR1 channels in lipid bilayers, 213 nM Njun in the cytoplasmic solution, increase over control [4]: 5 fold
binding result [5]: binds

Next, values leading:

open probability (Po) of purified RyR1 channels in lipid bilayers, 213 nM Cjun in the luminal solution, relative to control [1]: 0.68 of control
Molecule: C-terminal domain of canine junctin (amino acids 46–210), His6-tagged (domain or fragment)

open probability of purified RyR1 channels in lipid bilayers, 213 nM FLjun in the luminal solution, increase over control [2]: 1.9 fold
Molecule: full-length junctin isolated from rabbit skeletal muscle (natural protein)
